Experimental data taken from the supplement of paper PMC9732359.
± gives the uncertainty stated by the source.

Assay: protein stability index of a GFP-peptide fusion (yeast GPS) (PSI 1-4); higher = more stable; sorted into four equal gates, so the index is relative within each strain
How it was run: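 Mid-log yeast cultures in leucine-free medium, carrying a pooled plasmid library, were sorted into four equal gates by their GFP/Cherry fluorescence ratio. Each plasmid expressed Cherry along with GFP fused upstream of a tiled 17-residue yeast protein peptide. Plasmids recovered from each gate were PCR-amplified and Illumina-sequenced, with reads assigned to strains by barcodes. The protein stability index was obtained by summing each gate's read frequency weighted by its gate number.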

Sequence	protein stability index (doa10∆)	protein stability index (pdr5∆)	protein stability index (ubr1∆)	protein stability index (san1∆)
RFYQLGVDLKLKYSKRR [CSN12]	1.26 ± 0.12	1.16 ± 0.1	1.15 ± 0.088	–
LSCEKITHYAVRGGNIE [RRI1]	2.37 ± 0.062	2.3 ± 0.078	2.19 ± 0.047	2.51 ± 0.08
NSMEYTGKITKMFQDIR [CDC53]	3.06 ± 0.27	3.41 ± 0.14	3.28 ± 0.078	2.96 ± 0.085
RFAFSVIWELDDSANIV [DIS3]	2.63 ± 0.06	2.49 ± 0.067	2.62 ± 0.047	3.01 ± 0.063
SNEEQRNLDSATLKEIK [SMC3]	3.5 ± 0.14	3.21 ± 0.13	3.48 ± 0.16	3.46 ± 0.084
NRPDNKNAQYHLLVKQG [RPN7]	2.86 ± 0.056	2.58 ± 0.053	2.78 ± 0.036	2.79 ± 0.05
TKQIQSVRIDGRKVLQK [SIR4]	2.32 ± 0.06	2.48 ± 0.055	2.02 ± 0.04	2.03 ± 0.069
KTASLGNSKDDLLDMIQ [ISW2]	1.62 ± 0.066	2.22 ± 0.13	1.94 ± 0.059	3.36 ± 0.059
FDEGTTLLSPKDNGMLI [RPO21]	2.7 ± 0.066	2.45 ± 0.067	1.96 ± 0.065	2.91 ± 0.061
TPVSHNDDLYGKVTDVR [RPL1A]	3.04 ± 0.091	3.04 ± 0.096	3.12 ± 0.084	2.81 ± 0.067
PLDDAGTIGWDLGITEK [MCD1]	–	–	3.05 ± 0.16	–
FLQPLLLVGLIKTFYWL [NUT1]	1.8 ± 0.051	2.3 ± 0.062	1.8 ± 0.051	1.5 ± 0.089
DGFKIYDNEKTAELIKE [PUP2]	3.29 ± 0.1	3.32 ± 0.15	3.18 ± 0.13	3.15 ± 0.061
SRKAHGLNAKQLYKARM [POP1]	3.03 ± 0.094	3.4 ± 0.12	2.83 ± 0.034	2.96 ± 0.05
SEDLFADGLLQVLVCTA [BRR2]	–	–	2.25 ± 0.13	–
IAPRPLDLLRPVVRAPT [RPL13A]	2.55 ± 0.08	3.15 ± 0.089	2.7 ± 0.051	2.1 ± 0.12
FAAKQRQELQMQRQQQG [SNF2]	2.66 ± 0.052	2.84 ± 0.046	2.7 ± 0.045	2.71 ± 0.038
YPNSSKLKRNSDRREHD [LIN1]	3.25 ± 0.083	3.1 ± 0.067	3.03 ± 0.075	3.02 ± 0.045
AHCILGIGGDHAKFSPV [RPC40]	2.59 ± 0.085	2.82 ± 0.15	2.85 ± 0.068	2.41 ± 0.12
NKTLTLDLKECYQFAEY [ARP7]	1.96 ± 0.089	2.3 ± 0.072	2.69 ± 0.1	1.9 ± 0.17
ITDKTIKAFMDSTIGNS [IRR1]	2.54 ± 0.15	2.62 ± 0.14	2.41 ± 0.14	3.4 ± 0.15
GVEEVEGEYELTEAVED [RPL5]	3.36 ± 0.11	3.45 ± 0.13	3.24 ± 0.2	3.24 ± 0.14
RTAPKSDNVYLKLLVKL [RPL18A]	2.6 ± 0.092	2.8 ± 0.093	3.03 ± 0.068	2.7 ± 0.089
LALINYGRQELADDLIT [RPN2]	–	1.82 ± 0.26	1.49 ± 0.14	1.57 ± 0.28
ETESSVSNNEANTPSIP [SWI3]	3.09 ± 0.053	3.12 ± 0.069	3.15 ± 0.054	3.11 ± 0.054
LTAIPILLEPIYEVDIT [SNU114]	2.24 ± 0.047	1.75 ± 0.041	2.19 ± 0.038	1.94 ± 0.054
MSVKPIDNYITNSVRLF [SRP21]	1.94 ± 0.076	1.91 ± 0.06	1.63 ± 0.079	1.56 ± 0.068
LRLLEVTDDDRLWLKKV [POP8]	1.36 ± 0.061	1.68 ± 0.072	1.61 ± 0.071	1.35 ± 0.095
